Test results from publication PMC7580981.

Molecular target: IBV polymerase trimeric complex (Pol3): PA-His, PB1, PB2 (influenza B virus)
Test: SPR; Biacore T200; […]; running buffer HBS-EP+; 1:1 fit model

human ANP32A, purified (GST cleaved), sequence (P39687 whole entry): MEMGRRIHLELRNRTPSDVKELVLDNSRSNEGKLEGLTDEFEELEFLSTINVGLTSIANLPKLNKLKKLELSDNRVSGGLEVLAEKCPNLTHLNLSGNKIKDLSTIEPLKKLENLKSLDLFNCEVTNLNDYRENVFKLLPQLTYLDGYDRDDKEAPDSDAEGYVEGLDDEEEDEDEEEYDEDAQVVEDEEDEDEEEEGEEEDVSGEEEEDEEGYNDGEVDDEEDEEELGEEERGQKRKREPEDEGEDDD

In the case of “chicken ANP32A, purified (GST cleaved) (natural protein)”, the KD of chANP32A relative to that of huANP32A (fold) is reported as 3 fold.

Work on “human ANP32A with the 33-amino-acid insert, purified (GST cleaved)” yielded a Kd of 101 nM.

With “human ANP32A, purified (GST cleaved) (from UniProt P39687 1-249) (natural protein)” the Kd was 54.2 nM and the ka relative to chANP32A and huANP32A+33 (fold) was 2 fold.
